Common to all, as to assay: ELISA; collagen model peptide or collagen XI coated; COMP or TSP-4 at indicated concentrations in TBS-T with 0.25% BSA, 1 h, room temperature; detected with anti-COMP or anti-TSP-4 antibody; four-parameter logistic fit; apparent KD
(An ELISA detects its analyte on a solid surface through an enzyme-linked reagent.)

Test [1] concerns the target GVKGHR foldon collagen model peptide (minimal binding site) (not stated | bacteriophage T4).
In test [2] the target is … foldon collagen model peptide (valine to proline) (not stated | bacteriophage T4).
The target of test [3] is … foldon collagen model peptide (histidine to proline) (not stated | bacteriophage T4).

cartilage oligomeric matrix protein (COMP), wild type, pentameric, sequence (P49747 21-757): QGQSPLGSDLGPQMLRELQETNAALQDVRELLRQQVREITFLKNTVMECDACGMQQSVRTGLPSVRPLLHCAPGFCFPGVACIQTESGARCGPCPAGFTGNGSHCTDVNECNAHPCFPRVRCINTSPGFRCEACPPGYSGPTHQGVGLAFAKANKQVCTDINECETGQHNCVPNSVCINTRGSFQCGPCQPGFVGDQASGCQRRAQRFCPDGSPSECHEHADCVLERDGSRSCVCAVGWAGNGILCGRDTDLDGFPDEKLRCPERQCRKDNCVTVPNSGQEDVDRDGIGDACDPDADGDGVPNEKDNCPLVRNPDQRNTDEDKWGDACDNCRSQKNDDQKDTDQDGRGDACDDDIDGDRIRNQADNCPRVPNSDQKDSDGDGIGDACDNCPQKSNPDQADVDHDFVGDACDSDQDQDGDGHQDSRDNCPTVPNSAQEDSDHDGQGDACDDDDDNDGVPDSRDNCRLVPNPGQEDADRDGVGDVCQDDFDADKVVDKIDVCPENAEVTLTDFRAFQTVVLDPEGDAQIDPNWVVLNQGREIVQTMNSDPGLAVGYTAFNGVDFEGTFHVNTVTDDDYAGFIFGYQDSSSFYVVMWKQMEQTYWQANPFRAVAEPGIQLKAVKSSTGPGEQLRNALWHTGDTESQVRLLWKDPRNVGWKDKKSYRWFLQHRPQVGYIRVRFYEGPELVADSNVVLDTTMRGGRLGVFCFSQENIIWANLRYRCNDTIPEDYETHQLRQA
thrombospondin-4 (TSP-4), sequence (P35443 27-961): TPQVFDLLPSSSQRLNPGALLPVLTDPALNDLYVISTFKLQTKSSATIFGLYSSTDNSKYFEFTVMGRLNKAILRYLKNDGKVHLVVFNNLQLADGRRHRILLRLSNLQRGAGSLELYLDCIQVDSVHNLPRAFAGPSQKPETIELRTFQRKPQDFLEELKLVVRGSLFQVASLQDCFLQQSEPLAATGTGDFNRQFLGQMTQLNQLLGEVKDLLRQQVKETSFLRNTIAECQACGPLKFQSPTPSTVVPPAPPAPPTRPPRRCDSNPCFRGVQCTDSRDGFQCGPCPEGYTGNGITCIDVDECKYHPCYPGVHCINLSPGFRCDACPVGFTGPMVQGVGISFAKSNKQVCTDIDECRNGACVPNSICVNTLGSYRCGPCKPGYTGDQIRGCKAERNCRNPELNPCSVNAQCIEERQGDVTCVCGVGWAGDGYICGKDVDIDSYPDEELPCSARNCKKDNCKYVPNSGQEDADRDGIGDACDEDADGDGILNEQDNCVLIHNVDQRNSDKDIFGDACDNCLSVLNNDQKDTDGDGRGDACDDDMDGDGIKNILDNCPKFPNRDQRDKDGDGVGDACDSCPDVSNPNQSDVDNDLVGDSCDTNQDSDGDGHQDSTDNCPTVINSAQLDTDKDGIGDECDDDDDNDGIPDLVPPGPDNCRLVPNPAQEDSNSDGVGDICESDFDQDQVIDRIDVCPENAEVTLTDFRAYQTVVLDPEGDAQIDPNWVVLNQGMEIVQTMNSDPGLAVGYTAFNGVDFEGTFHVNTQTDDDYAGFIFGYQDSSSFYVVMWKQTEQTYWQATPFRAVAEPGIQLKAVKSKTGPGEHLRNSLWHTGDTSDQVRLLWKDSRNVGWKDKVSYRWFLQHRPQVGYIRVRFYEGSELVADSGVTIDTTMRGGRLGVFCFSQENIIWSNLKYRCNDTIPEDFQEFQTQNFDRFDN

For the substance “thrombospondin-4 (TSP-4) (from UniProt P35443 27-961) (natural protein)”, in test [1], the Kd came out at 0.56 nM.

On to “cartilage oligomeric matrix protein (COMP), wild type, pentameric (from UniProt P49747 21-757) (natural protein)”, for which the Kd in test [2] turned out to be 2.26 nM; in test [1], 1.61 nM; in test [3], 496 nM.

These data come from publication PMC6249252, “COMP and TSP-4 interact specifically with the novel GXKGHR motif only found in fibrillar collagens” (Scientific Reports, 2018).
